Experiment: soluble on expression in E. coli; label from the status in PepcDB or PDB records

| Sequence | soluble on expression in E. coli |
| --- | --- |
| DITVYNGQHKEAAQAVADAFTRATGIKVKLNSAKGDQLAGQIKEEGSRSPADVFYSEQIPALATLSAANLLEPLPASTINETRGKGVPVAAKKDWVALSGRSRVVVYDTRKLSEKDLEKSVLNYATPKWKNRIGYVPTSGAFLEQIVAIVKLKGEAAALKWLKGLKEYGKPYAKNSVALQAVENGEVDAALINNYYWHAFAREKGVQNVHTRLNFVRHRDPGALVTYSGAAVLKSSQNKDEAKKFVAFLAGKEGQRALTAVRAEYPLNPHVVSTFNLEPIAKLEAPQVSATTVSEKEHATRLLEQAGMK | soluble |
| DKDNPKGLPMLSVDEPTLTMDFMVNTSPLAGTEGKFVTSRQIRDRLQKELLTNVALRVEDTADADVFRVSGRGELHLTILLENMRREGYELAVGKPRVVYRDIDGQKCEPYENLTVDVPDDNQGAVMEELGRRRGELTNMESDGNGRTRLEYHIPARGLIGFQGEFMTLTRGVGLMSHVFDDYAPVKPDMPGRHNGVLVSQEQGEAVAYALWNLEDRGRMFVSPNDKIYEGMIIGIHSRDNDLVVNPLKGKKLTNIRASGTDEAVRLTTPIKLTLEGAVEFIDDDELVEITPQSIRLRKRYLSELERRRHFKKLD | not soluble |
| DLKILDPIWTTAYITRNHGYMVYDTLFSLDAQGNIQPQMVDTVTTSEDGLMVTMTLRDGLVWHDGAPVTAADCVASINRWGSKDAMGQKMMSFVESLEATDDKTITFKLSTPTGLVTLALAKPSSNVPFMMPERVASTPSSEQIADYTGSGPFVFRQ | not soluble |
| DLTGKSIVGYRISGGLDIPIGYGLYVNPSLAFHSKGMKTNLEGVALGALGLNSSLKVKTHYIEIPVHLGYRLSLLNLVSVAVQAGPYFSYAIKGDGTVVRKDGQETTFDIYKDGLKEMINAKRFDVGLGAAAMVGYSNFYLLIGADFGLINTVKDIKPETKNLEATLKNTSFHVGLGIRL | not soluble |
| DNPLESPPPEIVKQGKEAVRQYFQSIEEARSKGEALVHLQEIKVHLIGDGMAGKTSLLKQLIGETFDPKESQTHGLNVVTKQAPNIKGLENDDELKECLFHFWDFGGQEIMHASHQFFMTRSSVYMLLLDSRTDSNKHYWLRHIEKYGGKSPVIVVMNKIDENPSYNIEQKKINERFPAIENRFHRISCKNGDGVESIAKSLKSAVLHPDSIYGTPLAPSWIKVKEKLVEATTAQRYLNRTEVEKICNDSGITDPGERKTLLGYLNNLGIVLYFEALDLSEIYVLDPHWVTIGVYRIINSSKTKNGHLNTSALGYILNEEQIRCDEYDPAKNNKFTYTLLEQRYLLDIMKQFELCYDEGKGLFIIPSNLPTQIDNEPEITEGEPLRFIMKYDYLPSTIIPRLMIAMQHQILDRMQWRYGMVLKSQDHEGALAKVVAETKDSTITIAIQGEPRCKREYLSIIWYEIKKINANFTNLDVKEFIPLPGHPDELVEYKELLGLEKMGRDRYVSGKLEKVFSVSKMLDSVISKEERNKER | soluble |
| DPRLARLLGLHTQSRSAIVQALWQYVKTNRLQDSHDKEYINGDKYFQQIFDCPRLKFSEIPQRLTALLLP | soluble |
| DRLGPHRAAMMASLNDAVKAASQHHQAEAFGQGDMFGVLTDAPEEVENKYTQVPPWPEKVWLEGERETLGLYLTGHPINAYLKELNKYTSCRLKDATPTRRDQ | not soluble |
| DVDEVLRLCAEGLHDVLGYERVNILMADTARTSLSFVAAVGTADFNPAGVVLPLDQRGGVITKCFTDRQVYMIDDVSAYPTDFRLQSPYDAIRALRSKSFVICPIVVKGEAIGVFAVDNRSSR | not soluble |
| DVGRVLWLAEDITQRKRRREKQALIERVFEVSPVGIVVVERSGRISLANDRAEELLGLEREKITRRRYDQPEWNIYYKDGTEIPDSEHPVTQVLESGEPVFGFEHWIELEDGSERWLSSNAAPILGDDGTVERVVVGLDD | not soluble |
| DYRPGGFHPAFKGEPYKDARYILVRKLGWGHFSTVWLAKDMVNNTHVAMKIVRGDKVYTEAAEDEIKLLQRVNDADNTKEDSMGANHILKLLDHFNHKGPNGVHVVMVFEVLGENLLALIKKYEHRGIPLIYVKQISKQLLLGLDYMHRRCGIIHTDIKPENVLMEIVDSPENLIQIKIADLGNACWYDEHYTNSIQTREYRSPEVLLGAPWGCGADIWSTACLIFELITGDFLFEPDEGHSYTKDDDHIAQIIELLGELPSYLLRNGKYTRTFFNSRGLLRNISKLKFWPLEDVLTEKYKFSKDEAKEISDFLSPMLQLDPRKRADAGGLVNHPWLKDTLGMEEIRVPDRELYGSGSDIPGWFEEVRDHKRH | soluble |
| EAEAISCGSPPPILNGRISYYSTPIAVGTVIRYSCSGTFRLIGEKSLLCITKDKVDGTWDKPAPKCQYFNKYSSCPEPIVPGGYKIRGSTPYRHGDSVTFACKTNFSMNGNKSVWCQANNMWGPTRLPTCVSVFPLEQKLIS | soluble |
| EAEEDGDLQCLCVKTTSQVRPRHITSLEVIKAGPHCPTAQLIATLKNGRKICLDLQAPLYKKIIKKLLES | soluble |
| EDPSLDRPFISEGTTLKDLIYDMTTSGSGSGLPLLVQRTIARTIVLQESIGKGRFGEVWRGKWRGEEVAVKIFSSREERSWFREAEIYQTVMLRHENILGFIAADNKDNGTWTQLWLVSDYHEHGSLFDYLNRYTVTVEGMIKLALSTASGLAHLHMEIVGTQGKPAIAHRDLKSKNILVKKNGTCCIADLGLAVRHDSATDTIDIAPNHRVGTKRYMAPEVLDDSINMKHFESFKRADIYAMGLVFWEIARRCSIGGIHEDYQLPYYDLVPSDPSVEEMRKVVCEQKLRPNIPNRWQSCEALRVMAKIMRECWYANGAARLTALRIKKTLSQLSQQEGIKM | soluble |
| EDWNEIDPIKKKDLHHSNGEEKAQSMETLPPGKVRWPDFNQEAYVGGTMVRSGQDPYARNKFNQVESDKLRMDRAIPDTRHD | soluble |
| EFSLSTLLEMTVGLASGANNEERFHRLLDAVRKAVICDCVVLMSLHNDTLTPLAMQGLTRDTLGRRFVVSEHPRLAQICSADLPVRFAADCPLPDPFDGLLLDSEDDLPMHSCMGLPLHFGEQLLGILTLDSLKPDAFDHLSPRSLEILAAIAAATLKMTLTFSELENQAKQTQLRLEELNQEAWSRDSVE | not soluble |
| EFSMEDLIPLVNRLQDAFSAIGQNADLDLPQIAVVGGQSAGKSSVLENFVGRDFLPRGSGIVTRRPLVLQLVNATTEYAEFLHCKGKKFTDFEEVRLEIEAETDRVTGTNKGISPVPINLRVYSPHVLNLTLVDLPGMTKVPVGDQPPDIEFQIRDMLMQFVTKENCLILAVSPANSDLANSDALKVAKEVDPQGQRTIGVITKLDLMDEGTDARDVLENKLLPLRRGYIGVVNRSQKDIDGKKDITAALAAERKFFLSHPSYRHLADRMGTPYLQKVLNQQLTNHIRDTLPGLRNKLQSQLLSIEKEVEEYKNFRPDKHGTDSRVDEMLRMYHALKEALSIIGNIN | soluble |
| EGSIGNGLDLTGILFGNIDSEGRLLQDDDGEGRGGTGFDAELRENIGSLSKLGLDSMLLEVIDLKEA | soluble |
| EIAPLFTIENTVEEVEGMRPYTPLELAGRDIYVREGCYACHSQMIRTLRSDVERYGHYSLAAESMYDHPFQWGSKRTGPDLARIGGKYSDDWHVAHLEDPRALVPGSVMPGYAFLSATRLDTGHLPAALEALRRAGVPYTDAQIATAEQAAGWQADAEQAYESELQELFGDNVQLRDFDGRPGELTEMDALVAYLQVLGT | not soluble |
| EIAVIGAAGKTGAAVVAALEGLDDVRRVVHTARRAGDFAVDLETGAGLDKALSGCRGVYFIAPNVHPDEPALLRNTMRAAASVGVDHFVYHSVAWPYTPLMPHHVDKARCEDELRTFGGLRWTVLQPCAYAENFGAVLAGTATTVELPYSPDAAFSFVALADVAEVGARVLVEGPDIHHGATYELGGPEALSVRDLCDRAGGPVSVKQVSVDEWMSRHGRDLTDDGRARLSAMFEFYDRYGFL | not soluble |
| EIKDTYNIGELSPGMTATFEGEVISALPIKEFKRADGSIGKLKSFIVRDETGSIRVTLWDNLTDIDVGRGDYVRVRGYIREGYYGGLECTANYVEILKKGEKIES | soluble |
| EIRDTKKDLKESEMRLSLALDASNMAAWHIDMDTRHIAYSDTLAVIFGYPKDTTLVWSDLVAQIYPEDMHLYQTARQQMETTGLYEYEIRIVWPDNSIKWIKTIGKMLLDSDGSQRRMIGITRDIT | not soluble |
| EITHRTKTRPVKVGPLTIGGNNEVVIQSMTTTKTHDVEATVAEINRLAEAGCQIVRVACPDERAANAIADIKKRISIPLVVDIHFDYKLALKAIEGGADKIRINPGNIGRREKVEAVVKAAKDKGIPI | not soluble |
| EKFRWFISSEGFLVIGGKDATTNEIVVRKYLEENDLYCHADIWGAPHVVIKDGQKAGEKTIFEACQFAVSMSRAWSEGLYSADAYWVYPNQVKKQAPSGEFLPK | not soluble |
| ELKPTAPPIFTGRPFVVAWDVPTQDCGPRLKVPLDLNAFDVQASPNEGFVNQNITIFYRDRLGLYPRFDSAGRSVHGGVPQNVSLWAHRKMLQKRVEHYIRTQESAGLAVIDWEDWRPVWVRNWQDKDVYRRLSRQLVASRHPDWPPDRIVKQAQYEFEFAAQQFMLETLRYVKAVRPRHLWGFYLFPDCYNHDYVQNWESYTGRCPDVEVARNDQLAWLWAESTALFPSVYLDETLASSRHGRNFVSFRVQEALRVARTHHANHALPVYVFTRPTYSRRLTGLSEMDLISTIGESAALGAAGVILWGDAGYTTSTETCQYLKDYLTRLLVPYVVNVSWATQYCSRAQCHGHGRCVRRNPSASTFLHLSTNSFRLVPGHAPGEPQLRPVGELSWADIDHLQTHFRCQCYLGWSGEQCQWDHRQAAGG | soluble |
| ELVMTQTPSSVSEPVGGTVTIKCQASQSISSWLSWYQQKPGQPPKLLIYDASNLASGVPSRFMGSGSGTEYTLTISGVQREDAATYYCLGGYPAASYRTAFGGGTELEIIRTVAAPSVFIFPPSDEQLKSGTASVVCLLNNFYPREAKVQWKVDNALQSGNSQESVTEQDSKDSTYSLSSTLTLSKADYEKHKVYACEVTHQGLSSPVTKSFNRGEC | soluble |
| ENENRVEALEVRLAFQDELLDALNATVARQQKEIDLLQQQIRLLYQQFRNAQPDDAPGGSLRDDIPPHY | soluble |
| ENGRYEYIVIGSEAAGVGLVRELTAAGKKVLAVDKSKEKIELLEDEGFDAVIADPTDESFYRSLDLEGVSAVLITGSDDEFNLKILKALRSVSDVYAIVRVSSPKKKEEFEEAGANLVVLVADAVKQAFMDKIKKMETL | not soluble |
| ENKILKIEKGTSGWGGPLYIKKEGNRNKILSMTAGGIHEVTLKIKELLGCEIVDGFKTGVSDEEVAVVIIDCGGTARCGVYPKKKIPTINVNPVGKTGPLAKFITEEYYVSDVNPNCISVVDGEDMPQKSQENKSENKSSIRKPDNYDEVKSKAQGEYAKKNIILSIGQGAGQVVSKFYDAGRDTIQMVMNN | not soluble |
| ENLGATVIPASTGNTEKHVRLIRDLGITGIACTPSYALYLAEVVERMGLTKNDINLRIGAFGAEPWTESMRKEIEERLGLKGYNIYGLSEIMGPGVSYECQEQH | not soluble |
| EPAHGRQHTPCLFCDRLFASAEETFSHCKLEHQFNIDSMVHKHGLEFYGYIKLINFIRLKNPTVEYMNSIYNPVPWEKDEYLKPVLEDDLLLQFDVEDLYEPVSTPFS | soluble |
